According to the DeepSol protein solubility set:

Assay: soluble on expression in E. coli; label from the status in PepcDB or PDB records

Sequence: QMTARDVYLPVAAQPSVDTLVGMSQQAEDRGYDRVWLPETWGRDAVTTLTSIAEHTSTVGLGSSILNVYSRSPALLGQTAATLQEVSDGRFRAGVGPSGPIVIEGWHGREFESPLKYTRETVDIMKQVLSGETVDYDGDIFSLSGFRLRCEPPEPAPPVDAGGLGPKSVELAGRFADGWHALMLTADGLRDRLEDFEHGADLGDRDRADQRVTLSLTCCAMDDREQARELARQHVAFYIGGMGTFYRDALARQGYEDTAYEIAEQWGSGNKGAAVDAISDELLDSIAVAGTPEDCRDRIAQFEDIDGVDAINISFPRAAERDTIDTTIDVL
- soluble on expression in E. coli: not soluble

Sequence: MNLDKPLLPGQVIGIIGGGHLAKMMALSAREMGFRVGVLDPQIDCPAAQVADWQLLGAYNDPEALEKLAKRAQVITYEFEHADVDALTAIQHLANIPQGTDILAITQDRLMEKSFLEDNNIVIAPYATIVSPTDIQEAIDGIGYPCILKNTRGEGRYVLHSTSDLAPSMNLLREGTCVLEAWIPYEKELSVLISGNGRGEFATFPVVETIKKERKLHETIAPARIDDEVSGELQRIAKVIAKAVGLVGTLSIEMFYTETGGIYVNKILPRPEDAGNFSIDACSFSQYDTHIRGLCNWPMPTIQLLSEAVTVNVLGNEAYETMDIINEHPDWHFHYYGHSEAKAQRAMGHITILTKEIDETLEEIKETKIWS
- soluble on expression in E. coli: not soluble

Sequence: GHMASMDISGGNTSRQPQKKSNQNIQVYVRVRPLNSRERCIRSAEVVDVVGPREVVTRHTLDSKLTKKFTFDRSFGPESKQCDVYSVVVSPLIEEVLNGYNCTVFAYGQTGTGKTHTMVGNETAELKSSWEDDSDIGIIPRALSHLFDELRMMEVEYTMRISYLELYNEELCDLLSTDDTTKIRIFDDSTKKGSVIIQGLEEIPVHSKDDVYKLLEKGKERRKTATTLMNAQSSRSHTVFSIVVHIRENGIEGEDMLKIGKLNLVDLAGSENVSKAGNEKGIRVRETVNINQSLLTLGRVITALVDRAPHVPYRESKLTRLLQESLGGRTKTSIIATISPGHKDIEETLSTLEYAHRAKNIQNKPEVNQKLTK
- soluble on expression in E. coli: soluble

Sequence: MSLQIQGQIVDIENKRIYSGEITIQNGKIISIIEKNHEVKNYILPGFIDAHIHIESSMLVPSEFAKIAVLHGTVATISDPHEIANVLGKKGVYYMIENGKQVPLKFHFGAPSCVPATAFETAGAIIDSEEIKELMASPDIYYLSEMMNYPGVLFDDDEVLKKIAWAKHFNKPIDGHAPGLRGEPIKKYISAGITTDHECFTYSEAQEKLSLGMKVIIREGSAAKNFEALIDLLPANYENMMFCSDDKHPDDLILGHINLLCARAVAKGIDVFKILQVACVNPVHHYKMKVGLLKKNDAADFIVVEDLVNFKVNKTYINGELVAENGQSFVENINFETPNNFNITKKKISDFEIPSLAEKIRVIEALEGQLITNEIHHNSFIKNGKLVSDIENDILKMAVVNRYQNTTPAIAFIKNFGLKKGAIASSVAHDCHNIVVVGTSDEEICNAVNLIIKNTGGICAVNGTQNKSLALPVAGIMSDKDAWETGKLYQEIDAMAKDLGSTLKAPFMTLSFMALLVIPDLKLSDKGLFSGNTFSFVDLNVEEGHHHHHH
- soluble on expression in E. coli: soluble

Sequence: MRKMMRQSLQAVLPEISGNKTSLLRKSVCSDLLTLFNSPHSALPSLLVSGMPEWQVHNPSDKHLQSWYCRQLRSALLFHEPRIAALQVNLKEAYCHTLAISLEIMLYHDDEPLTFDLVWDNGGWRSATLENVS
- soluble on expression in E. coli: not soluble
